# This sample holds only a part of the variants without activity.
# B1: TPR 5TU (parent)
# chain: GGAUCUUCUCGAUCUAACAAAAAAGACAAAUCUGCCACAAAGCUUGAGAGCAUCUUCGGAUGCAGAGGCGGCAGCCUUCGGUGGCGCGAUAGCGCCAACGUUCUCAACUAUGACACGCAAAACGCGUGCUCCGUUGAAUGGAGUUUAUCAUG
# Variants of: B1
# Assay: polymerase ribozyme fitness, log enrichment relative to wild type (log ratio); higher = more active; in vitro selection for triplet polymerase activity
# Method in brief: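 Mutant libraries of each subunit of a heterodimeric triplet polymerase ribozyme were built by PCR and transcribed. Each library went through one round of in vitro selection in triplicate: annealing with biotinylated primer, partner subunit and triplets, frozen incubation at −7 °C, gel excision of extended constructs, streptavidin-bead capture and RT-PCR. Input and output libraries were Illumina-sequenced; only genotypes with ≥10 input reads and ≥1 read per output were kept. Fitness is log2(genotype enrichment/wild-type enrichment), using inverse-variance-weighted replicate averages.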
row,Variant,polymerase ribozyme fitness (log ratio)
1,U101G A106C A113C A122G,≤ -4.2
2,C114G G140C G141U,≤ -4.2
3,A107U A120G C132A A147C,≤ -4.2
4,C103G A121G,-1.32
5,C118G A150G,-2.14
6,U104G U135C G143C,-3.79
7,A106G C118U,0.261
8,C118G A122C G141C,-2.43
9,C123U A142U,-1.13
10,C108A G124U G140C,≤ -4.2
11,C108G A122C,≤ -4.2
12,C118A A119U,-0.617
13,A115U U146G,-2.23
14,U101A G143C,-2.08
15,C99A U148G,≤ -4.2
16,A106G A142C,-0.922
17,A115G G141A,-0.426
18,G112A,-1.96
19,G112C,-2.68
20,G112U,-2.77
21,U109G C118G U144A,-3.88

row,Variant,polymerase ribozyme fitness (log ratio)
1,U104G G126C,0.0565
2,U104G G126A,0.207
3,C105U A120U G124A,0.877
4,C105U U109G G133C,-1.81
5,C99A C116U,-0.602
6,A121U C125U,-0.154
7,C116G A120U,0.554
8,G124C U135A,-1.84
9,U102G U148A,-3.81
10,C116U U135A,-0.565
11,C99U A150C,≤ -4.2
12,C99U A150G,-0.552
13,C103G A120U,-1.5
14,C103G C108G G124C U144A U145G,≤ -4.2
15,A115U A119G A138G,≤ -4.2
16,C114U U148G,-3.06
17,C99U U102A,-1.33
18,C118G A122C,-1.49
19,C99U C149U,-1.17
20,A122U U135C A137G,-3.91
21,C116U U144A,-0.259

row,Variant,polymerase ribozyme fitness (log ratio)
1,C116G,0.655
2,C116A,1.34
3,C116U,0.103
4,C103G A107G A142G,≤ -4.2
5,C116U A142U,-0.344
6,U102G G124A,-2.85
7,C99G C149U,-1.74
8,A113C U134C A137C G140A U148G,≤ -4.2
9,G100C G136U U146G,≤ -4.2
10,C118G U144A,-0.0459
11,A119U U127C,-2.06
12,U109G C114G,-3.7
13,A115G U135A,-2.48
14,U104G U134G G143A,-3.69
15,C118U U146C,-1.27
16,C118U U145A,-0.179
17,A110G C129U U144C,≤ -4.2
18,C116G G140C,-3.81
19,A115C U127C,-1.1
20,A119C G143A,-0.422
21,G124C G141C,-1.16

row,Variant,polymerase ribozyme fitness (log ratio)
1,A121C G128C,-2.44
2,A120C C125G G133U,-3.85
3,C123U G124A U144C,0.0575
4,C125U A147U,-1.83
5,A122U U146C,-0.714
6,C118U G140U,-3.11
7,C116U C125G,1.23
8,A107U U145A,-2.78
9,A122G A138G C149U,-4
10,C105G A107U U148C,≤ -4.2
11,C114A U144G,-3.71
12,A106C G152U,-2.57
13,C116A U151C,-4.09
14,G124C C132A,-2.4
15,C99G G126A,-0.619
16,C99G G126U,-0.93
17,C105A A113U,≤ -4.2
18,A120U A121U U144G C149G,-3.46
19,G100U U144G,-3.5
20,U104G A119C C123U,0.501

# From the RNAGym collection of RNA variant scans (doi:10.1073/pnas.2313332121)
